For experiment [1], the target named is T1, non-covalent PAI-1-anhydrotrypsin complex (human; bovine, UniProt P00760 24-246, anhydrotrypsin (chemically modified active site; the residue is not given)).
T1 construct: Formed in the well: 1 µM anhydrotrypsin present during the PAI-1 incubation step; also called PAI-1 in association with anhydrotrypsin
The experiment in a line: solid phase assay on nVn-coated plates with 1 µM anhydrotrypsin in all wells (FIG. 28). The procedure: Briefly, Vn at 1 µg/ml in phosphate buffered saline (PBS), was coated overnight onto Immulon 2 (Dynatech) rmicrotiter plates in a volume of 100 μl at 4° C., and all subsequent steps were performed at room temperature. The plates were washed with PBS followed by dH₂O, allowed to air dry for 15 min., and then blocked with 200 μl of 3% bovine serum albumin in PBS for 30 minutes.

Another experiment concerns the target T2, PAI-1:tPA complex (human, UniProt P00750 36-562).
T2 construct: also called tPA-PAI-1 complex
Briefly: solid phase assay on nVn-coated plates, anti-PAI-1 detection (FIG. 27).

A further experiment deals with T3, PAI-1:uPA complex (human, UniProt P00749 21-431).
T3 construct: also called uPA-PAI-1 complex; UPA-PAI-1
Described as above.

For experiment [2], the target named is T4, recombinant active wild-type PAI-1 (plasminogen activator inhibitor type 1) (human, UniProt P05121 24-402).
T4 construct: Serpin; Bacterially expressed human PAI-1 (Molecular Innovations), active conformation (>95%); also called wtPAI-1; active PAI-1
The experiment in a line: competitive inhibition of active PAI-1 binding to immobilized nVn by solution-phase Vn, ELISA. The procedure: IC₅₀ values for the inhibition by solution-phase Vn were calculated using a four parameter logistic fit from the GraFit program (Erithacus Software). […] The latter was calculated based on the fit of binding data in the absence of competitor Vn (FIG. 37) by equation 1.
On the technique in general: ELISA stands for enzyme-linked immunosorbent assay.

In experiment [3] the target is T4, recombinant active wild-type PAI-1 …. The experiment in a line: 6.4 µM active PAI-1 with 200 µM peptide; thermodenaturation, mass spectra, SDS-PAGE. From the text: The free peptide was then removed by chromatography on Heparin Sepharose.

The values below come from patent US20030216321A1 (REGENTS OF THE UNIVERSITY OF MICHIGAN, published 2003).

Ends that are not written are not given here. Some results are limits rather than exact numbers.

B1: native human vitronectin (ligand, UniProt P04004 20-478, looked up)
chain: DQESCKGRCTEGFNVDKKCQCDELCSYYQSCCTDYTAECKPQVTRGDVFTMPEDEYTVYDDGEEKNNATVHEQVGGPSLTSDLQAQSKGNPEQTPVLKPEEEAPAPEVGASKPEGIDSRPETLHPGRPQPPAEEELCSGKPFDAFTDLKNGSLFAFRGQYCYELDEKAVRPGYPKLIRDVWGIEGPIDAAFTRINCQGKTYLFKGSQYWRFEDGVLDPDYPRNISDGFDGIPDNVDAALALPAHSYSGRERVYFFKGKQYWEYQFQHQPSQEECEGSSLSAVFEHFAMMQRDSWEDIFELLFWGRTSAGTRQPQFISRDWHGVPGQVDAAMAGRIYISGMAPRPSLAKKQRFRHRNRKGYRSQRGHSRGRNQNSRRPSRATWLSLFSSEESNLGANNYDDYRMDWLVPATCEPIQSVFFFSGDKYYRVNLRTRRVDTVDPPYPRSIAQYWLGCPAPGHL
notes: Predominantly monomeric; also called nVn; native Vn
Turning to B1, in experiment [1], the binding result is given as “binds”. Moreover, the dissociation constant Kd with PAI-1:tPA complex and with PAI-1:uPA complex was above 0.1 µM in each case.

B2: urea denatured human vitronectin (conformationally altered) (ligand, UniProt P04004 20-478, looked up)
chain: B1 chain
notes: also called dVn; uVn
Consider B2, for which the “fold difference of IC50 against solution-phase nVn” value in experiment [2] is around 6 fold.

B3: synthetic RCL peptide Ac-Thr-Val-Ala-Ser-Ser-Ser-Thr-Ala (PAI-1 P14 to P7) (peptide)
peptide: Ac-TVASSSTA
notes: also called eight residue synthetic peptide
Take B3: in experiment [3], the binding result is recorded as “binds”.
